Measured values as given in US20260008815A1, “CYCLIC PEPTIDE OR SALT THEREOF, AND USES THEREOF” (FUJIFILM Corporation, priority 2023, published 2026).
Bridge positions count the residues as written; N and C are the ends. Ends that are not written are not given here. COCH2 = acetyl group that carries the bridge

molecular target: T1, Recombinant Human FGFR2 alpha (IIIc) Fc Chimera Protein, CF (R&D systems, 712-FR-050) (human, UniProt P21802 22-377); experiment: ELISA on plate-bound FGFR2-Fc
T1 construct: bought; not shown: Fc part of the chimera
T1 sequence (P21802 22-377, change not shown): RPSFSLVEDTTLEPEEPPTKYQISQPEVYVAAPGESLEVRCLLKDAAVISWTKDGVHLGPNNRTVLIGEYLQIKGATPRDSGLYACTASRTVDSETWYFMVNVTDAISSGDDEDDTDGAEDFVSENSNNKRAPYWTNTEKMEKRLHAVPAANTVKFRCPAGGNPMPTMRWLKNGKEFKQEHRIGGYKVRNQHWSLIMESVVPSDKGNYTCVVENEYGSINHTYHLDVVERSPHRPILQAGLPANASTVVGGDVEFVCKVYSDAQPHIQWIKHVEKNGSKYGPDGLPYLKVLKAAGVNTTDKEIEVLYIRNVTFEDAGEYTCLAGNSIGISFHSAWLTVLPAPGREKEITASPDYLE
How it was run: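 Peptide binding scored by category from dose-response of background-corrected luminescence (FGFR-coated minus uncoated wells). Detection via anti-Myc antibody (2 h, room temperature) after 3 h peptide incubation on wells coated with 5 ng FGFR2 alpha (IIIc)-Fc.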

Binder	ELISA luminescence signal at 10 nmol/L peptide, relative to SEQ ID NO: 47 (=1) [ratio]
YCEENYLDPHQYQYFIYFK(COCH2)Y (thioether 2-19 (inferred)) [cyclic peptide SEQ ID NO: 250]	≥ 0.7
YCEENYLDPEQYQYFVYFK(COCH2)Y (thioether 2-19 (inferred)) [cyclic peptide SEQ ID NO: 279]	≥ 0.7
YCEENYLDPEQYQYFQYFK(COCH2)Y (thioether 2-19 (inferred)) [cyclic peptide SEQ ID NO: 284]	≥ 0.7
YCEENYLDPEQFQYFIYFK(COCH2)Y (thioether 2-19 (inferred)) [cyclic peptide SEQ ID NO: 254]	≥ 0.7
YCEENYLDPEQHQYFIYFK(COCH2)Y (thioether 2-19 (inferred)) [cyclic peptide SEQ ID NO: 256]	≥ 0.7
YCEENYLDPEQIQYFIYFK(COCH2)Y (thioether 2-19 (inferred)) [cyclic peptide SEQ ID NO: 253]	0.1 to 0.5
YCEENYLDPEQYQYFGYFK(COCH2)Y (thioether 2-19 (inferred)) [cyclic peptide SEQ ID NO: 277]	0.1 to 0.5
YCEENYLDPEQYVYFIYFK(COCH2)Y (thioether 2-19 (inferred)) [cyclic peptide SEQ ID NO: 260]	≥ 0.7
YCEENYLDPEQYQYFDYFK(COCH2)Y (thioether 2-19 (inferred)) [cyclic peptide SEQ ID NO: 287]	≥ 0.7
YCEENYLDPEQYQYFIGFK(COCH2)Y (thioether 2-19 (inferred)) [cyclic peptide SEQ ID NO: 291]	0.5 to 0.7
YCEENYLDPEQYGYFIYFK(COCH2)Y (thioether 2-19 (inferred)) [cyclic peptide SEQ ID NO: 257]	≥ 0.7
YCEENYLDPEQYLYFIYFK(COCH2)Y (thioether 2-19 (inferred)) [cyclic peptide SEQ ID NO: 258]	≥ 0.7
YCEENYLDPEQYQYFTYFK(COCH2)Y (thioether 2-19 (inferred)) [cyclic peptide SEQ ID NO: 286]	≥ 0.7
YCEENYLDPEQYQYLIYFK(COCH2)Y (thioether 2-19 (inferred)) [cyclic peptide SEQ ID NO: 275]	≥ 0.7
YCEENYLDPEQYQYFWYFK(COCH2)Y (thioether 2-19 (inferred)) [cyclic peptide SEQ ID NO: 282]	≥ 0.7
YCEENYLDPEQYQYFLYFK(COCH2)Y (thioether 2-19 (inferred)) [cyclic peptide SEQ ID NO: 278]	≥ 0.7
YCEENYLDPEQYQYFRYFK(COCH2)Y (thioether 2-19 (inferred)) [cyclic peptide SEQ ID NO: 289]	≥ 0.7
YCEENYLDPEQYDYFIYFK(COCH2)Y (thioether 2-19 (inferred)) [cyclic peptide SEQ ID NO: 267]	≥ 0.7
YCEENYLDPEQYQYFEYFK(COCH2)Y (thioether 2-19 (inferred)) [cyclic peptide SEQ ID NO: 288]	≥ 0.7
YCEENYLDPEQYQFFIYFK(COCH2)Y (thioether 2-19 (inferred)) [cyclic peptide SEQ ID NO: 272]	≥ 0.7
YCEENYLDPEQLQYFIYFK(COCH2)Y (thioether 2-19 (inferred)) [cyclic peptide SEQ ID NO: 252]	0.1 to 0.5
YCEENYLDPEQYQIFIYFK(COCH2)Y (thioether 2-19 (inferred)) [cyclic peptide SEQ ID NO: 271]	0.1 to 0.5

Binder	ELISA luminescence signal at 10 nmol/L peptide, relative to SEQ ID NO: 47 (=1) [ratio]
YCEENYLDPEQYFYFIYFK(COCH2)Y (thioether 2-19 (inferred)) [cyclic peptide SEQ ID NO: 261]	0.5 to 0.7
YCEENYLDPEQYQHFIYFK(COCH2)Y (thioether 2-19 (inferred)) [cyclic peptide SEQ ID NO: 274]	0.1 to 0.5
YCEENYLDPEQYIYFIYFK(COCH2)Y (thioether 2-19 (inferred)) [cyclic peptide SEQ ID NO: 259]	≥ 0.7
YCEENYLDPEQYQYFYYFK(COCH2)Y (thioether 2-19 (inferred)) [cyclic peptide SEQ ID NO: 281]	≥ 0.7
YCEENYLDPEQYQYFNYFK(COCH2)Y (thioether 2-19 (inferred)) [cyclic peptide SEQ ID NO: 283]	≥ 0.7
YCEENYLDPEQYQYFILFK(COCH2)Y (thioether 2-19 (inferred)) [cyclic peptide SEQ ID NO: 293]	≥ 0.7
YCEENYLDPEQYYYFIYFK(COCH2)Y (thioether 2-19 (inferred)) [cyclic peptide SEQ ID NO: 262]	≥ 0.7
YCEENYLDPEQYRYFIYFK(COCH2)Y (thioether 2-19 (inferred)) [cyclic peptide SEQ ID NO: 269]	≥ 0.7
YCEENYLDPEQYHYFIYFK(COCH2)Y (thioether 2-19 (inferred)) [cyclic peptide SEQ ID NO: 270]	≥ 0.7
YCEENYLDPEQYQYFIPFK(COCH2)Y (thioether 2-19 (inferred)) [cyclic peptide SEQ ID NO: 292]	0.1 to 0.5
YCEENYLDPEQYEYFIYFK(COCH2)Y (thioether 2-19 (inferred)) [cyclic peptide SEQ ID NO: 268]	≥ 0.7
YCEENYLDPEQWQYFIYFK(COCH2)Y (thioether 2-19 (inferred)) [cyclic peptide SEQ ID NO: 255]	≥ 0.7
YCEENYLDPEQYWYFIYFK(COCH2)Y (thioether 2-19 (inferred)) [cyclic peptide SEQ ID NO: 263]	≥ 0.7
YCEENYLDPEQYSYFIYFK(COCH2)Y (thioether 2-19 (inferred)) [cyclic peptide SEQ ID NO: 265]	≥ 0.7
YCEENYLDPEQYQYFHYFK(COCH2)Y (thioether 2-19 (inferred)) [cyclic peptide SEQ ID NO: 290]	≥ 0.7
YCEENYLDPEQYQYFFYFK(COCH2)Y (thioether 2-19 (inferred)) [cyclic peptide SEQ ID NO: 280]	≥ 0.7
YCEENYLDPEQYNYFIYFK(COCH2)Y (thioether 2-19 (inferred)) [cyclic peptide SEQ ID NO: 264]	≥ 0.7
YCEENYLDPEQYQYFSYFK(COCH2)Y (thioether 2-19 (inferred)) [cyclic peptide SEQ ID NO: 285]	≥ 0.7
YCEENYLDPEHYQYFIYFK(COCH2)Y (thioether 2-19 (inferred)) [cyclic peptide SEQ ID NO: 251]	0.1 to 0.5
YCEENYLDPEQYQNFIYFK(COCH2)Y (thioether 2-19 (inferred)) [cyclic peptide SEQ ID NO: 273]	0.1 to 0.5
YCEENYLDPEQYTYFIYFK(COCH2)Y (thioether 2-19 (inferred)) [cyclic peptide SEQ ID NO: 266]	≥ 0.7
YCEENYLDPEQYQYYIYFK(COCH2)Y (thioether 2-19 (inferred)) [cyclic peptide SEQ ID NO: 276]	0.5 to 0.7
